Two molecules from paper PMC8899190, “Creating a Selective Nanobody Against 3-Nitrotyrosine Containing Proteins” (Frontiers in Chemistry, 2022) can be followed below.

Holding throughout (settings): both partners purified
Assay [1] addresses T1, Avi-tagged, biotinylated h14-3-3ß_(nY130) (Homo sapiens, UniProt P31946, 3-nitrotyrosine at 130; biotin on the N-terminal Avi tag).
T1 construct: human 14-3-3 beta with 3-nitrotyrosine in place of Y130, from a pBAD-AVI-14-3-3-His plasmid; also called 14-3-3β_(nY130); 14-3-3_(nY130); source: E. coli BL21ai with genetic code expansion, co-expressed with GST-BirA, purified (TALON); not shown: Avi tag, N-terminal, kept
The assay is described as follows: BLI; Nb-G5 (C115S) against nitrated and WT h14-3-3β; conditions of this experiment not told.

The target of the next assay is calmodulin WT (species ; human CALM1 entry, …, UniProt P0DP23). As to the kind of experiment: BLI; CaM forms on sensors (kind of sensor not told), Nb-G5 in solution (300 nM in Figure 3C); 0.05% Tween; local fits. For orientation: BLI is a label-free optical method that tracks binding on a fibre tip over time.
Assay [2] deals with T2, h14-3-3ß_(nY130), His-tagged (Homo sapiens, UniProt P31946, 3-nitrotyrosine at 130).
T2 construct: human 14-3-3 beta with 3-nitrotyrosine in place of Y130 (amber suppression); Held on nickel-coated ELISA plates; also called 14-3-3β nitroY130; source: E. coli BL21ai with genetic code expansion, purified (TALON)
T2 sequence (P31946 whole entry): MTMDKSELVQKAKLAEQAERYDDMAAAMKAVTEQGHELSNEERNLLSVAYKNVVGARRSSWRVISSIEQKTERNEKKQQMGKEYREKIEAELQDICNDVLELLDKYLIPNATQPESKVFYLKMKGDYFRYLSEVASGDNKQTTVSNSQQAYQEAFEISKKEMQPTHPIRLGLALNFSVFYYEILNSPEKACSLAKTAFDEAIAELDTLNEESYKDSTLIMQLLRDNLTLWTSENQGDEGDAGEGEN
As to the kind of experiment: far-Western, overlay or dot blot; 14-3-3 targets (0.5-5 µg) dotted on PVDF, probed with Nb-G5 diluted 1:3,000 in TBS at room temperature, detected with anti-llama HRP.

Assay [3] addresses T3, h14-3-3ß_(nY213), His-tagged (Homo sapiens, UniProt P31946, 3-nitrotyrosine at 213).
T3 construct: human 14-3-3 beta with 3-nitrotyrosine in place of Y213 (amber suppression); also called nitrated human 14-3-3ß isoform nY213; source: E. coli BL21ai with genetic code expansion, purified (TALON)
Described as above.

T3 sequence (P31946 whole entry, canonical isoform): as the sequence (P31946 whole entry) above
T1 sequence (P31946 whole entry): as above

B1: Nb-G5 (C115S) (VHH)
VHH: QVQLQESGGGLVQPGGSLRLSCAASKNIANFDSMAWYRRSPGKERDLVARLYSDGGTNYEDSVKGRFNISTDIEKNTVYLQMNNLKLEDTARYYCRADLGLFDTSEFPGQGTQVTVSS
notes: also called C115S mutant of Nb-G5
For the molecule B1, in assay [1], the “fold decrease of binding against Nb-G5” value came to 6 fold.

B2: Nb-G5 (VHH)
VHH: QVQLQESGGGLVQPGGSLRLSCAASKNIANFDSMAWYRRSPGKERDLVARLYSDGGTNYEDSVKGRFNISTDIEKNTVYLQMNNLKLEDTARYYCRADLGLFDTCEFPGQGTQVTVSS
notes: alpaca nanobody from phage display; The methods describe two cleavable tags for nanobodies (His6-SUMO cut by ULP1, His-bdNEDD8 cut by bdNEDP1); also called anti-nitroTyr Nb; source: E. coli, purified (TALON, tag cleaved, Superdex 200 SEC)
As for B2, the binding result in the assay with calmodulin WT is listed as “no binding (tested: 300 nM)”; in assay [2] it was “binds”; in assay [3] it was “binds”.
